In patent publication US20060177831A1 (published 2006):

B1: c-MET extracellular domain (ECD)/Fc chimera (Fc fusion, not shown: a dimerising Fc or GST)
chain: ECKEALAKSEMNVNMKYQLPNFTAETPIQNVILHEHHIFLGATNYIYVLNEEDLQKVAEYKTGPVLEHPDCFPCQDCSSKANLSGGVWKDNINMALVVDTYYDDQLISCGSVNRGTCQRHVFPHNHTADIQSEVHCIFSPQIEEPSQCPDCVVSALGAKVLSSVKDRFINFFVGNTINSSYFPDHPLHSISVRRLKETKDGFMFLTDQSYIDVLPEFRDSYPIKYVHAFESNNFIYFLTVQRETLDAQTFHTRIIRFCSINSGLHSYMEMPLECILTEKRKKRSTKKEVFNILQAAYVSKPGAQLARQIGASLNDDILFGVFAQSKPDSAEPMDRSAMCAFPIKYVNDFFNKIVNKNNVRCLQHFYGPNHEHCFNRTLLRNSSGCEARRDEYRTEFTTALQRVDLFMGQFSEVLLTSISTFIKGDLTIANLGTSEGRFMQVVVSRSGPSTPHVNFLLDSHPVSPEVIVEHTLNQNGYTLVITGKKITKIPLNGLGCRHFQSCSQCLSAPPFVQCGWCHDKCVRSEECLSGTWTQQICLPAIYKVFPNSAPLEGGTRLTICGWDFGFRRNNKFDLKKTRVLLGNESCTLTLSESTMNTLKCTVGPAMNKHFNMSIIISNGHGTTQYSTFSYVDPVITSISPKYGPMAGGTLLTLTGNYLNSGNSRHISIGGKTCTLKSVSNSILECYTPAQTISTEFAVKLKIDLANRETSIFSYREDPIVYEIHPTKSFISGGSTITGVGKNLNSVSVPRMVINVHEAGRNFTVACQHRSNSEIICCTTPSLQQLNLQLPLKTKAFFMLDGILSKYFDLIYVHNPVFKPFEKPVMISMGNENVLEIKGNDIDPEAVKGEVLKVGNKSCENIHLHSEAVLCTVPNDLLKLNSELNIEWKQAISSTVLGKVIVQPDQNFT

Experiments:
[1] = biological target: recombinant human HGF (human, UniProt P14210 32-728); experiment: cell-based or functional assay
[2] = biological target: B1; experiment: binding ELISA on c-MET ECD/Fc, NiNTA-pure
[3] = biological target: B1; experiment: AlphaScreen competition with bn-HGF for c-MET ECD/Fc, NiNTA-pure
[4] = biological target: B1; experiment: AlphaScreen competition with bn-HGF for c-MET ECD/Fc, Q-pure

Chain of recombinant human HGF (P14210 32-728 limits assumed): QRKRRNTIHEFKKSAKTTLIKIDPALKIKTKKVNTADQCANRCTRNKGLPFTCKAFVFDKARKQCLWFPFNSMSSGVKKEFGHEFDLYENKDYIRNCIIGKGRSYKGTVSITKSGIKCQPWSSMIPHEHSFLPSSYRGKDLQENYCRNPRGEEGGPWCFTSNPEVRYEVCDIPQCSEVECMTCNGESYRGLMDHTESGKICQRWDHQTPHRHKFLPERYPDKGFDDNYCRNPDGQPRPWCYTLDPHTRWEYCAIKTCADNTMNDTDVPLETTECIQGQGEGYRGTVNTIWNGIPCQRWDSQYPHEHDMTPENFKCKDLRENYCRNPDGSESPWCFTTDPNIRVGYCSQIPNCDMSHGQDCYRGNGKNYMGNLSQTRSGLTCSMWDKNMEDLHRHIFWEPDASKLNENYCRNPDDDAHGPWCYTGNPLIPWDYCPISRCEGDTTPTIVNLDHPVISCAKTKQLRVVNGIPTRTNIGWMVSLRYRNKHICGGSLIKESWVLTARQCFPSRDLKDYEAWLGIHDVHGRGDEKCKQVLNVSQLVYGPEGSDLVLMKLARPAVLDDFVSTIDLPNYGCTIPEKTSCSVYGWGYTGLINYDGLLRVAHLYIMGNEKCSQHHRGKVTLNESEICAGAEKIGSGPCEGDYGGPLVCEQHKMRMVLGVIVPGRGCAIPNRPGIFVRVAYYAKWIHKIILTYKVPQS

Row | Binder | IC50, inhibition of HGF-induced proliferation of serum-starved A549-SC cells (tritiated thymidine) [1] | Kd [2] | IC50 [3] | IC50 [4]
1 | B1 | 1.73 nM |  |  | 
2 | CVSNEFTCRSTKRCVPQEWVCDGVNDCEDGSDETGCPKHTSLQ (designed binder, Assayed protein also bears HA and 6His tags; also called C382) [Anti-c-MET Avimer monomer M21] |  | 116 nM | 83 nM | 
3 | CVSNEFTCRSTKRCVPQEWVCDGVNDCEDGSDETGCPKHTSLQ (designed binder, Assayed protein also bears HA and 6His tags; also called C399) [Anti-c-MET Avimer monomer M38] |  | 95 nM | 50 nM | 881 nM
4 | CEADEFRCRSTGRCISVDWRCDGVSDCEDSSDEESCESTAPTSLQ (designed binder, Assayed protein also bears HA and 6His tags; also called C381) [Anti-c-MET Avimer monomer M20] |  | 158 nM | 22 nM | 186 nM
5 | CLADEFQCHSTKRCVPRHWLCDGVNDCEDGSDEKSCSQDPEFHKVSLQ (designed binder, Assayed protein also bears HA and 6His tags; also called C239) [Anti-c-MET Avimer monomer M13] |  |  | 247 nM | 
